B1: NLV2 TCR alpha chain (CDR3α only) (parent)
chain: AGPMKTSYDKVI

This experiment covers variants of B1. In words: T-Switch: Jurkat TCRβ−/− cells expressing a CDR3 saturation-mutagenesis library, stained with two peptide-HLA-A*02:01 tetramers (original and novel peptide) plus anti-CD3, FACS-sorted into four gates, gDNA sequenced. The settings on record: tetramers 1 µg/mL, 30 min on ice, SP, DP and SW gates expanded about 10 days between rounds ('two to three rounds of selection' in the Methods), unresolved parent, parent is a CDR3 fragment, scale: fold enrichment, numbering: sequential-on-construct, sequence starts at 1.

Setting [1] is: with both tetramers (double-negative gate, binds neither): HLA-A*02:01 with … and with …, gate DN: OPPOSITE: higher = more of the variant in the gate that binds neither peptide = LESS binding (or no expression; inferred). Fold enrichment of the CDR3 variant in one FACS gate of a two-tetram.
The mark [2] stands for this setting: with both tetramers (double-positive gate): HLA-A*02:01 with … and with …, gate DP: higher = more of the variant in the gate that binds both peptides. Fold enrichment of the CDR3 variant in one FACS gate of a two-tetramer stain. SP/DP/SW gates were expanded and re-sorted bef.

For the variant […] (CDR3 as printed); M4Q derived by comparing it with the table's wild-type CDR3 AGPMKTSYDKVI, the enrichment by setting is: under setting [1], 0.551; under setting [2], 0.
Take […] (CDR3 as printed); P3Q derived by comparing it with the table's wild-type CDR3 AGPMKTSYDKVI: the enrichment was 1.16 under setting [1] and 0 under setting [2].
For the variant […] (CDR3 as printed); K5F derived by comparing it with the table's wild-type CDR3 AGPMKTSYDKVI, the enrichment is 0.857 under setting [1] and 0 under setting [2].
For […] (CDR3 as printed); V11N derived by comparing it with the table's wild-type CDR3 AGPMKTSYDKVI, in that order: 1.11 and 0.
Consider […] (CDR3 as printed); A1S derived by comparing it with the table's wild-type CDR3 AGPMKTSYDKVI, for which the enrichment was found to be 0.736 under setting [1] and 0 under setting [2].
Consider […] (CDR3 as printed); M4G derived by comparing it with the table's wild-type CDR3 AGPMKTSYDKVI, for which the enrichment reads like this: under setting [1], 0.783; under setting [2], 0.
Turning to […] (CDR3 as printed); K10F derived by comparing it with the table's wild-type CDR3 AGPMKTSYDKVI, the enrichment by setting is: under setting [1], 1.13; under setting [2], 0.
For […] (CDR3 as printed); D9C derived by comparing it with the table's wild-type CDR3 AGPMKTSYDKVI, the enrichment by setting is: under setting [1], 0.717; under setting [2], 0.
For […] (CDR3 as printed); K10Y derived by comparing it with the table's wild-type CDR3 AGPMKTSYDKVI, in that order: 0.393 and 0.
For […] (CDR3 as printed); A1E derived by comparing it with the table's wild-type CDR3 AGPMKTSYDKVI, in that order: 0.767 and 0.
Turning to […] (CDR3 as printed); D9F derived by comparing it with the table's wild-type CDR3 AGPMKTSYDKVI, the enrichment by setting is: under setting [1], 1.2; under setting [2], 0.
Take […] (CDR3 as printed); K10R derived by comparing it with the table's wild-type CDR3 AGPMKTSYDKVI: the enrichment is, setting by setting: under setting [1], 0.909; under setting [2], 0.
For […] (CDR3 as printed); V11R derived by comparing it with the table's wild-type CDR3 AGPMKTSYDKVI, the enrichment by setting is: under setting [1], 1.26; under setting [2], 0.
With […] (CDR3 as printed); G2S derived by comparing it with the table's wild-type CDR3 AGPMKTSYDKVI, the enrichment came out at 1.02 under setting [1] and 0 under setting [2].
Turning to […] (CDR3 as printed); Y8H derived by comparing it with the table's wild-type CDR3 AGPMKTSYDKVI, the enrichment under setting [1] was determined as 0.969 and the enrichment under setting [2] was determined as 0.
For […] (CDR3 as printed); V11K derived by comparing it with the table's wild-type CDR3 AGPMKTSYDKVI, in that order: 1.49 and 0.
Consider […] (CDR3 as printed); K10A derived by comparing it with the table's wild-type CDR3 AGPMKTSYDKVI, for which the enrichment reads like this: under setting [1], 0.862; under setting [2], 0.
For the variant […] (CDR3 as printed); T6C derived by comparing it with the table's wild-type CDR3 AGPMKTSYDKVI, the enrichment is, setting by setting: under setting [1], 0.924; under setting [2], 0.
Regarding […] (CDR3 as printed); S7Q derived by comparing it with the table's wild-type CDR3 AGPMKTSYDKVI, the enrichment by setting is: under setting [1], 0.986; under setting [2], 0.
As to […] (CDR3 as printed); I12W derived by comparing it with the table's wild-type CDR3 AGPMKTSYDKVI, the enrichment is, setting by setting: under setting [1], 0.924; under setting [2], 0.
The corresponding values for […] (CDR3 as printed); V11T derived by comparing it with the table's wild-type CDR3 AGPMKTSYDKVI are 1.12 and 0.
For the variant […] (CDR3 as printed); K5D derived by comparing it with the table's wild-type CDR3 AGPMKTSYDKVI, the enrichment under setting [1] is 0.812 and the enrichment under setting [2] is 0.
The corresponding values for […] (CDR3 as printed); T6E derived by comparing it with the table's wild-type CDR3 AGPMKTSYDKVI are 1.78 and 0.
For […] (CDR3 as printed); M4D derived by comparing it with the table's wild-type CDR3 AGPMKTSYDKVI, in that order: 0.825 and 0.
The corresponding values for […] (CDR3 as printed); D9Y derived by comparing it with the table's wild-type CDR3 AGPMKTSYDKVI are 1.09 and 0.
Turning to […] (CDR3 as printed); T6K derived by comparing it with the table's wild-type CDR3 AGPMKTSYDKVI, the enrichment is 1.04 under setting [1] and 0 under setting [2].
For the variant […] (CDR3 as printed); T6D derived by comparing it with the table's wild-type CDR3 AGPMKTSYDKVI, the enrichment under setting [1] stood at 1.18 and the enrichment under setting [2] amounted to 0.
[…] (CDR3 as printed); D9H derived by comparing it with the table's wild-type CDR3 AGPMKTSYDKVI: the enrichment by setting is: under setting [1], 1.29; under setting [2], 0.
In the case of […] (CDR3 as printed); G2L derived by comparing it with the table's wild-type CDR3 AGPMKTSYDKVI, the enrichment reads like this: under setting [1], 0.978; under setting [2], 0.
For […] (CDR3 as printed); Y8S derived by comparing it with the table's wild-type CDR3 AGPMKTSYDKVI, the enrichment reads like this: under setting [1], 0.528; under setting [2], 0.
Regarding […] (CDR3 as printed); A1H derived by comparing it with the table's wild-type CDR3 AGPMKTSYDKVI, the enrichment was 0.735 under setting [1] and 0 under setting [2].
For the variant […] (CDR3 as printed); D9G derived by comparing it with the table's wild-type CDR3 AGPMKTSYDKVI, the enrichment by setting is: under setting [1], 1.23; under setting [2], 0.
In the case of […] (CDR3 as printed); A1K derived by comparing it with the table's wild-type CDR3 AGPMKTSYDKVI, the enrichment is, setting by setting: under setting [1], 1; under setting [2], 0.
For […] (CDR3 as printed); V11P derived by comparing it with the table's wild-type CDR3 AGPMKTSYDKVI, the enrichment by setting is: under setting [1], 0.923; under setting [2], 0.
For the variant […] (CDR3 as printed); K5I derived by comparing it with the table's wild-type CDR3 AGPMKTSYDKVI, the enrichment is, setting by setting: under setting [1], 1.56; under setting [2], 0.
In the case of […] (CDR3 as printed); I12N derived by comparing it with the table's wild-type CDR3 AGPMKTSYDKVI, the enrichment under setting [1] was 1.04 and the enrichment under setting [2] worked out at 0.
For […] (CDR3 as printed); V11S derived by comparing it with the table's wild-type CDR3 AGPMKTSYDKVI, the enrichment was 1.15 under setting [1] and 0 under setting [2].
For […] (CDR3 as printed); K5M derived by comparing it with the table's wild-type CDR3 AGPMKTSYDKVI, the enrichment is 0.901 under setting [1] and 0 under setting [2].
Regarding […] (CDR3 as printed); M4T derived by comparing it with the table's wild-type CDR3 AGPMKTSYDKVI, the enrichment by setting is: under setting [1], 0.518; under setting [2], 0.
The corresponding values for […] (CDR3 as printed); D9T derived by comparing it with the table's wild-type CDR3 AGPMKTSYDKVI are 0.889 and 0.
[…] (CDR3 as printed); I12Q derived by comparing it with the table's wild-type CDR3 AGPMKTSYDKVI: the enrichment runs as follows: under setting [1], 1.17; under setting [2], 0.
For […] (CDR3 as printed); M4C derived by comparing it with the table's wild-type CDR3 AGPMKTSYDKVI, the enrichment was 0.681 under setting [1] and 0 under setting [2].
Turning to […] (CDR3 as printed); G2H derived by comparing it with the table's wild-type CDR3 AGPMKTSYDKVI, the enrichment runs as follows: under setting [1], 0.822; under setting [2], 0.
With […] (CDR3 as printed); D9L derived by comparing it with the table's wild-type CDR3 AGPMKTSYDKVI, the enrichment reads like this: under setting [1], 0.93; under setting [2], 0.
In the case of […] (CDR3 as printed); S7K derived by comparing it with the table's wild-type CDR3 AGPMKTSYDKVI, the enrichment stood at 1.32 under setting [1] and 0 under setting [2].
With […] (CDR3 as printed); K10S derived by comparing it with the table's wild-type CDR3 AGPMKTSYDKVI, the enrichment by setting is: under setting [1], 1.01; under setting [2], 0.
As to […] (CDR3 as printed); A1L derived by comparing it with the table's wild-type CDR3 AGPMKTSYDKVI, the enrichment runs as follows: under setting [1], 0.94; under setting [2], 0.
In the case of […] (CDR3 as printed); S7P derived by comparing it with the table's wild-type CDR3 AGPMKTSYDKVI, the enrichment is, setting by setting: under setting [1], 0.995; under setting [2], 0.
For […] (CDR3 as printed); A1W derived by comparing it with the table's wild-type CDR3 AGPMKTSYDKVI, the enrichment is, setting by setting: under setting [1], 0.77; under setting [2], 0.
On to […] (CDR3 as printed); M4R derived by comparing it with the table's wild-type CDR3 AGPMKTSYDKVI, for which the enrichment reads like this: under setting [1], 0.913; under setting [2], 0.
As to […] (CDR3 as printed); A1P derived by comparing it with the table's wild-type CDR3 AGPMKTSYDKVI, the enrichment by setting is: under setting [1], 0.883; under setting [2], 0.
As to […] (CDR3 as printed); I12Y derived by comparing it with the table's wild-type CDR3 AGPMKTSYDKVI, the enrichment runs as follows: under setting [1], 1.06; under setting [2], 0.
In the case of […] (CDR3 as printed); D9E derived by comparing it with the table's wild-type CDR3 AGPMKTSYDKVI, the enrichment under setting [1] stood at 1.03 and the enrichment under setting [2] turned out to be 0.
On to […] (CDR3 as printed); G2P derived by comparing it with the table's wild-type CDR3 AGPMKTSYDKVI, for which the enrichment is, setting by setting: under setting [1], 0.883; under setting [2], 0.
As for […] (CDR3 as printed); V11Q derived by comparing it with the table's wild-type CDR3 AGPMKTSYDKVI, the enrichment reads like this: under setting [1], 1.35; under setting [2], 0.
As for […] (CDR3 as printed); V11L derived by comparing it with the table's wild-type CDR3 AGPMKTSYDKVI, the enrichment runs as follows: under setting [1], 0.656; under setting [2], 0.
As to […] (CDR3 as printed); D9K derived by comparing it with the table's wild-type CDR3 AGPMKTSYDKVI, the enrichment reads like this: under setting [1], 0.961; under setting [2], 0.

(Values after article PMC13397619.)
